Changes are numbered by the printed parent chain.
T1: Cdc13-BD (Saccharomyces cerevisiae, UniProt P32797 451-693)
T1 sequence: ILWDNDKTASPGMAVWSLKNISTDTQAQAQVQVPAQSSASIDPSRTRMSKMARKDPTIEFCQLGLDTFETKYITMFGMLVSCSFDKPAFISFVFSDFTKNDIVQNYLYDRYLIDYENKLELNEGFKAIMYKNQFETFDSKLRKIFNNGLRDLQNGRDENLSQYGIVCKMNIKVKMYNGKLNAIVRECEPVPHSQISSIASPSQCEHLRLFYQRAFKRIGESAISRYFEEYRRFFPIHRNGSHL

T2: Cdc13 (Saccharomyces cerevisiae, UniProt P32797 1-924)
T2 sequence: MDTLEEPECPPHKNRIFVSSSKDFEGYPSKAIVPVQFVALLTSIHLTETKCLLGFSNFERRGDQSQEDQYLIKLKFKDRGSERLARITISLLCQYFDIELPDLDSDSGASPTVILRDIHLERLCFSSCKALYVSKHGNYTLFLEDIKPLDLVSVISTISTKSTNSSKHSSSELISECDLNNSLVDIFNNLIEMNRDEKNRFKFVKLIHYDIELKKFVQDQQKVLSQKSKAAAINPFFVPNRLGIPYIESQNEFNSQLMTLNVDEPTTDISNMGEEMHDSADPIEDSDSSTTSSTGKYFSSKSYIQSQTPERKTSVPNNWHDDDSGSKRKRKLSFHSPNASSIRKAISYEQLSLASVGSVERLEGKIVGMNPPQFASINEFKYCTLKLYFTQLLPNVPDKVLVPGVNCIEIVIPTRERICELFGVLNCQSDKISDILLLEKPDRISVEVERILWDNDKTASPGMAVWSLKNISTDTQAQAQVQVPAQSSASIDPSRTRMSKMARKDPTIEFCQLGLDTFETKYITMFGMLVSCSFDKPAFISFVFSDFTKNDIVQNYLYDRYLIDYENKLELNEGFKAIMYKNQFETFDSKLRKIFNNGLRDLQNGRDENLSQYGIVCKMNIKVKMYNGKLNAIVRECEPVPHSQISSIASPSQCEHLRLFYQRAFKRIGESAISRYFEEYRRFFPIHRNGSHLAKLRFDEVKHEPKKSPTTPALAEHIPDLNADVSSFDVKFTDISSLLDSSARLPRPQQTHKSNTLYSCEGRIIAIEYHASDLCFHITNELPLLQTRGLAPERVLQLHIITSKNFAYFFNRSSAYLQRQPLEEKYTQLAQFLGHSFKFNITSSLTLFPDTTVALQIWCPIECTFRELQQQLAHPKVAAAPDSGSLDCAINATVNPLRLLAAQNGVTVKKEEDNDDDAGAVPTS

T3: Est1-TAP (Saccharomyces cerevisiae, UniProt P17214 1-699)
T3 sequence: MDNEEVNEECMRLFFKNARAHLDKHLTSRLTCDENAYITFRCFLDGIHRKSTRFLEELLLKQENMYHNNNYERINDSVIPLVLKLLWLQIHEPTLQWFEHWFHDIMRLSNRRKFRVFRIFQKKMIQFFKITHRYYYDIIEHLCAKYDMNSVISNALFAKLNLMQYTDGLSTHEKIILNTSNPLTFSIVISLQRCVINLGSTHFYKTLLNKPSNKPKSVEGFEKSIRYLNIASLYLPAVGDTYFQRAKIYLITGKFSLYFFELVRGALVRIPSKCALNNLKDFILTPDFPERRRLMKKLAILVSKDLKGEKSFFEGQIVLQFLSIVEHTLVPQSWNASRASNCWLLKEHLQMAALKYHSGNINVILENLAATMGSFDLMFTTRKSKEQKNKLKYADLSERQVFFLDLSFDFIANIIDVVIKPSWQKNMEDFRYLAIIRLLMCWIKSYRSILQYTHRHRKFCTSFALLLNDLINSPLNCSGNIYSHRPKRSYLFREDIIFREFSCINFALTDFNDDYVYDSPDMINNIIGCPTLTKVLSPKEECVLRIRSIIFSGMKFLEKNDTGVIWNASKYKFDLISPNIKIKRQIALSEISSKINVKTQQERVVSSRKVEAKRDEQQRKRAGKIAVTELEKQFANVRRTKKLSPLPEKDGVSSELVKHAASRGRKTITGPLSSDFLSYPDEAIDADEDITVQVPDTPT

T4: Cdc13-2 (Saccharomyces cerevisiae, UniProt P32797 1-924, E252K)
T4 sequence: T2 sequence with E252K

B1: T21 (ssDNA)
DNA: ATGGCTAGGTAGCCGAATTGCGTAGGTGGGTGTGGTGTGTGTGGG
B2: T21/C20 tailed duplex (mixed)
DNA 1: B1 DNA
DNA 2: CCCACCTACGCAATTCGGCTACCTAGCCAT
modifications: 3'-NH2 on C20

Columns and labels:
Cdc13-BD = biological target: T1, Cdc13-BD; test: EMSA; 20-80 nM protein, 30 nM DNA; second BD molecule binds; EMSA: room temperature 5 min (30 C in Fig 5E), 30 nM DNA, 6% native gel, buffer not stated; DMS footprint: 50 mM cacodylate pH 7.0, 25 C 10 min, then 0.05% DMS; conditions: protein: recombinant; tags: 6xHis; label: 5'-32P; single strand
Cdc13 = biological target: T2, Cdc13; test: EMSA; 20-80 nM Cdc13, 30 nM DNA; EMSA: room temperature 5 min (30 C in Fig 5E), 30 nM DNA, 6% native gel, buffer not stated; DMS footprint: 50 mM cacodylate pH 7.0, 25 C 10 min, then 0.05% DMS; conditions: protein: recombinant, tags: 6xHis
Est1-TAP = biological target: T3, Est1-TAP; test: EMSA; Est1-TAP alone; no stable complex; EMSA: room temperature 5 min (30 C in Fig 5E), 30 nM DNA, 6% native gel, buffer not stated; DMS footprint: 50 mM cacodylate pH 7.0, 25 C 10 min, then 0.05% DMS; conditions: protein: recombinant; label: 5'-32P on T21; 3' overhang 15 nt (T21 strand)
Cdc13-2 = biological target: T4, Cdc13-2; test: EMSA; affinity similar to wild-type Cdc13; EMSA: room temperature 5 min (30 C in Fig 5E), 30 nM DNA, 6% native gel, buffer not stated; DMS footprint: 50 mM cacodylate pH 7.0, 25 C 10 min, then 0.05% DMS; conditions: protein: recombinant; tags: 6xHis; chain copies: 2; label: 5'-32P on T21; 3' overhang 15 nt (T21 strand)

| Binder | binding result (Cdc13-BD) | binding result (Cdc13; label: 5'-32P, single strand) | binding result (Est1-TAP) | binding result (Cdc13-2) | binding result (Cdc13; chain copies: 2, label: 5'-32P on T21, 3' overhang 15 nt (T21 strand)) |
| --- | --- | --- | --- | --- | --- |
| B1 | binds | binds |  |  |  |
| B2 |  |  | no binding | binds | binds |
